Data as given in patent US20240309080A1 (CHIA TAI TIANQING PHARMACEUTICAL GROUP, published 2024).
Like-named read-outs stand apart in the source and are kept apart here.

Legend:
Assay in all cases: cell-based or functional assay
[1] = molecular target: T1, recombinant human TSLP-his (human, UniProt Q969D9 29-159, biotin-labeled in the capture ELISA)
[2] = molecular target: T1, recombinant human TSLP-his; remark: listed apart in the source
[3] = molecular target: T1, recombinant human TSLP-his; remark: listed apart in the source
[4] = molecular target: T1, recombinant human TSLP-his; remark: listed apart in the source
[5] = molecular target: T1, recombinant human TSLP-his; remark: listed apart in the source
[6] = molecular target: T1, recombinant human TSLP-his; remark: listed apart in the source

Row | IC50, STAT5-luciferase reporter in HEK293T-TSLPR/IL7R/STAT5-Luc cells stimulated with human TSLP-his (RLU) [4] [µg/mL] | IC50, STAT5-luciferase reporter in HEK293T-TSLPR/IL7R/STAT5-Luc cells stimulated with human TSLP-his (RLU) [6] [µg/mL] | Binder | IC50, TSLP-his dependent survival and proliferation of BAF3-3E6 cells expressing TSLPR/IL7R (Cell Titer-Glo, RLU) [1] [pM] | IC50, TSLP-his dependent survival and proliferation of BAF3-3E6 cells expressing TSLPR/IL7R (Cell Titer-Glo, RLU) [2] [pM] | IC50, TSLP-his dependent survival and proliferation of BAF3-3E6 cells expressing TSLPR/IL7R (RLU) [3] [pM] | IC50, TSLP-his dependent survival and proliferation of BAF3-3E6 cells expressing TSLPR/IL7R (RLU) [5] [pM]
1 | – | – | Chimeric 1C5F12E9 (antibody, V domains shown) VH: QVQLQQPGTELVKPGASVKMSCKASGYTFTTYWMHWVKQRPGQGLEWIGVIDPSDSDTTYNQKFKGKATLTVDTSSSTAYMQLSSLTSEDSAVYYCTRSLDGYYDYWGQGTTLTVSS VL: DIQMTQSPASLSASVGETVTITCRPTENIYSYLAWYQQKQGKSPHLLVYFARTLAEGVPSRFSGSGSGTQFSLKINSLQPEDFGIYYCQHHYGTPWTFGGGTKLEIK | 0.521 | 1.37 | – | –
2 | 0.0118 | – | hu1C5F12E9-V8 (IgG1) (antibody) heavy: not shown light: DIQMTQSPSSLSASVGDRVTITCRPTENIYSYLAWYQQKPGKAPKLLIYFARTLAEGVPSRFSGSGSGTDFTLTISSLQPEDFATYYCQHHYGTPWTFGGGTKVEIKRTVAAPSVFIFPPSDEQLKSGTASVVCLLNNFYPREAKVQWKVDNALQSGNSQESVTEQDSKDSTYSLSSTLTLSKADYEKHKVYACEVTHQGLSSPVTKSFNRGEC | – | – | 4.32 | –
3 | ~0.0162 | – | hu1C5F12E9-V8 (IgG4) (antibody) heavy: not shown light: DIQMTQSPSSLSASVGDRVTITCRPTENIYSYLAWYQQKPGKAPKLLIYFARTLAEGVPSRFSGSGSGTDFTLTISSLQPEDFATYYCQHHYGTPWTFGGGTKVEIKRTVAAPSVFIFPPSDEQLKSGTASVVCLLNNFYPREAKVQWKVDNALQSGNSQESVTEQDSKDSTYSLSSTLTLSKADYEKHKVYACEVTHQGLSSPVTKSFNRGEC | 1.68 | – | 14.7 | –
4 | – | 0.025 | hu1C5F12E9-V14 (IgG4) (antibody) heavy: not shown light: DIQMTQSPSSLSASVGDRVTITCRPTENIYSYLAWYQQKPGKSPKLLIYFARTLAEGVPSRFSGSGSGTDFTLTISSLQPEDFATYYCQHHYGTPWTFGGGTKVEIKRTVAAPSVFIFPPSDEQLKSGTASVVCLLNNFYPREAKVQWKVDNALQSGNSQESVTEQDSKDSTYSLSSTLTLSKADYEKHKVYACEVTHQGLSSPVTKSFNRGEC | – | 5.78 | – | 8.36
5 | – | 0.022 | hu1C5F12E9-V14 (IgG1) (antibody) heavy: not shown light: DIQMTQSPSSLSASVGDRVTITCRPTENIYSYLAWYQQKPGKSPKLLIYFARTLAEGVPSRFSGSGSGTDFTLTISSLQPEDFATYYCQHHYGTPWTFGGGTKVEIKRTVAAPSVFIFPPSDEQLKSGTASVVCLLNNFYPREAKVQWKVDNALQSGNSQESVTEQDSKDSTYSLSSTLTLSKADYEKHKVYACEVTHQGLSSPVTKSFNRGEC | – | – | – | 6.73
